From patent US20200223910A1 (STERLING IP, published 2020)
Residue numbers refer to the chain shown, from its start. Names and notes keep the numbering of the source.

What was measured:
[1] = biological target: T1, human TNR rCd4-His-FBG (rat; human, UniProt P05540 209-391; Q92752 1128-1358, limits assumed); experiment: SPR, 37 C, purified IgG4 captured on anti-human Fc
T1 construct: domain: domains 3 and 4;domain: FBG; also called Hu TNR; hTNR; not shown: 6His tag
T1 sequence (chain (part 1 of 2), looked up): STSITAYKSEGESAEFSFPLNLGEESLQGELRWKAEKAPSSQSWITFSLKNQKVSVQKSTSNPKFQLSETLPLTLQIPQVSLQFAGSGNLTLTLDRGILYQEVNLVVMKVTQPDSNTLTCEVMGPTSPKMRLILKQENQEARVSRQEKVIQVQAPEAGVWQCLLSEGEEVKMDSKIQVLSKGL
T1 sequence (chain (part 2 of 2), looked up): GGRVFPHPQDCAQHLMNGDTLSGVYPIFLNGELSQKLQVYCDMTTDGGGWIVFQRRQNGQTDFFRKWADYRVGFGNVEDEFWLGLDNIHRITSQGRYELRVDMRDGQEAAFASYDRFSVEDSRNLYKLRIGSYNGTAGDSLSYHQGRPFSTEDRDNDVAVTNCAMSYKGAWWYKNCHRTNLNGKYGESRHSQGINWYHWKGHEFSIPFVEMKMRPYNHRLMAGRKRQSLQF
Description: (§1) Detailed kinetic parameters were evaluated for the 9 prioritised IgG4 antibodies. Binding characteristics were determined for interaction with human, […] TNC rCD4-His-FBG, and human TNR rCD4-His-FBG. Kinetic assays followed essentially the same protocols as for the off-rate determinations described above, with some modifications as follows. To improve the accuracy of kinetic parameter determination, anti-human Fc IgG was immobilised at lower levels (2229 RU), resulting in a corresponding reduction in the amount of anti-FBG IgG4 captured. Purified anti-FBG IgG4 was diluted to a concentration of 3.5 nM in PBS, pH 7.4, 0.05% Tween-20 and injected into FC2 at a flow rate of 10 μl/min, 60 s contact time. […] Antigens were prepared by doubling dilution in PBS, pH 7.4, 0.05% Tween-20 (highest concentration 100 nM except mouse rCD4-His-FBG which was 7 nM). Assays were performed at 37° C. (30 μl/min, 120 s contact time; mouse rCD4-His-FBGFBG 10 μl/min, 60 s contact time), with both the flow cell and injection chamber equilibrated to this temperature. As before, kinetic parameters were determined by reference cell subtraction and fitting the sensogram experimental data assuming a 1:1 interaction using BIAevaluation software (GE, BR-1005-97).

[2] = biological target: T2, human TNC rCd4-His-FBG (rat; human, UniProt P05540 209-391; P24821 1974-2201, limits assumed); experiment: SPR BIAcore T200, 37 C, IgG4 captured on anti-human Fc, rCd4-His-FBG injected, 1:1 fit
T2 construct: domain: domains 3 and 4;domain: FBG; C-terminal FBG fusion made in HEK293F cells; biotinylated in the ELISA and HTRF assays; also called Hu TNC; hTNC; not shown: 6His tag
T2 sequence (chain (part 1 of 2), looked up): T1 sequence (chain (part 1 of 2), looked up)
T2 sequence (chain (part 2 of 2), looked up): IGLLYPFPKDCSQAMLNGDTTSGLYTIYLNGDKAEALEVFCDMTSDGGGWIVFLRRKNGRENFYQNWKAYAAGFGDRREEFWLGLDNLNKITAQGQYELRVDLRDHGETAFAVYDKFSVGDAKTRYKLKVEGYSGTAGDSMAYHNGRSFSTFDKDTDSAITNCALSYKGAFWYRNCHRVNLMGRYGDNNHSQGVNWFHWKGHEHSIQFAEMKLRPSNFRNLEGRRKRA
Description: (§2) For the kinetic assay ˜1,500-1,900 response units (RU) of anti-human Fc IgG (GE, BR-1008-39) was immobilised in all flow-cells (FC1-4) on a Series S CM5 sensor chip (BR-1005-30) using EDC/NHS cross-linking chemistry according to the amine coupling kit protocol (GE, BR-1000-50). […] Antibody capture levels ranged typically from 70 RU (for TNR interactions) to 90 RU (for TNC interactions).
(§3) A 1:1 dilution series of antigen in HBS-P+ (30 nM of human and mouse TNC rCd4-His-FBG and 480 nM of human TNR rCd4-His-FBG) was injected with a flow-path via the reference flow cell (FC1 and FC3, respectively) and the antibody capture flow cell (FC2 and FC4, respectively) with a flow rate of 30 μl/min. The association and dissociation phases were measured over a 3.5 and 30 min time period, respectively, for human and mouse TNC rCd4-His-FBG, and 2 and 8 min time period for human TNR rCd4-His-FBG. For interaction analysis with human and mouse TNC rCD4-His-FBG regeneration of free capture antibody surfaces after each antigen injection was done by injection of 3 M MgCl 2 for 60 s and for each sample injection a fresh NSCT antibody was captured. Carry over of antigen was prohibited by an extra needle wash step with 50% DMSO before every injection. Runs were performed at the more physiologically relevant temperature of 37° C.
(§4) Kinetic parameters were determined by reference cell subtraction and fitting the sensorgram experimental data to a 1:1 interaction model using the BIAcore T200 Evaluation software version 2.0.

[3] = biological target: T3, mouse TNC rCd4-His-FBG (rat; mouse, UniProt P05540 209-391; Q80YX1 1883-2110, limits assumed); experiment: as above
T3 construct: domain: domains 3 and 4;domain: FBG; Biotinylated in the capture ELISA; also called Mu TNC; mTNC; not shown: 6His tag
T3 sequence (chain (part 1 of 2), looked up): T1 sequence (chain (part 1 of 2), looked up)
T3 sequence (chain (part 2 of 2), looked up): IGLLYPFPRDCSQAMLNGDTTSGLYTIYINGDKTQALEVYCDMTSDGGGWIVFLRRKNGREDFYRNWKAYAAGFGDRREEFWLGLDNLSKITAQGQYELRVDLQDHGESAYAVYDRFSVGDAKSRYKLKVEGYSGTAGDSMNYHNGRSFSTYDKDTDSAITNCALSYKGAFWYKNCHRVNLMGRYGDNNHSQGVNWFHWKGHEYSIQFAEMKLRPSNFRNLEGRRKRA
Description: as §2, §3, §4

[4] = biological target: T1, human TNR rCd4-His-FBG; experiment: as above
Description: as §2, §3, §4

[5] = biological target: T2, human TNC rCd4-His-FBG; experiment: SPR BIAcore T200, 37 C, IgG4 captured on anti-human Fc, rCd4-His-FBG injected, 1:1 fit; relative to theoretical Rmax
Description: as §2, §3, §4

[6] = biological target: T3, mouse TNC rCd4-His-FBG; experiment: as above
Description: as §2, §3, §4

[7] = biological target: T1, human TNR rCd4-His-FBG; experiment: as above
Description: as §2, §3, §4

[8] = biological target: T2, human TNC rCd4-His-FBG; experiment: SPR, 37 C, purified IgG4 captured on anti-human Fc
Description: as §1

B1: IgG4 165_13_C3 (antibody, V domains shown)
VH: QVQLVESGGGLVQPGRSLRLSCAASGFTFDDYAMHWVRQAPGKGLEWVSGISGSGGSTYYADSVKGRFTISRDNAKNSLYLQMNSLRAEDTALYYCAKSYQSDEDAFDIWGQGTMVTVSS
VL: DIQMTQSPASLPTPVGDRVTITCRASQYIQGFLNWYQQKPGKAPKLLIYDASNLETGVPSRFSGSGSGTDFTLTISSLQPEDFATYYCQQSYSTPQTFGQGTKVDIKR
notes: Human IgG4 with hinge modification S241P; also called MAb C3; C3 Mab
fold lower affinity than to human TNC FBG [1]: > 70 fold
Kd [2]: 1.24 nM
koff [2]: 0.0042 s⁻¹
kon [2]: 3.4e+06 M⁻¹ s⁻¹
Kd [3]: 0.433 nM
koff [3]: 0.004 s⁻¹
kon [3]: 9.27e+06 M⁻¹ s⁻¹
Kd [4]: 52.7 nM
koff [4]: 0.059 s⁻¹
kon [4]: 1.13e+06 M⁻¹ s⁻¹
SA, surface activity [5]: 298%
SA, surface activity [6]: 303%
SA, surface activity [7]: 184%

B2: 160_01_A4 IgG4 (antibody, V domains shown)
VH: EVRLVQSGAEVKKPGASVKVSCKVSGYTLTELSMHWVRQAPGKGLEWMGGFDPEDGETIYAQKFQGRVTMTEDTSTDTAYMELSSLRSEDTAVYYCATAQKETLGNAIWGQGTLVTVSS
VL: B1 VL with P14S, K45R, D50A, N53T, E55Q, T56D, S67Y, Q96W, D105E
Kd [8]: < 1 nM
fold lower affinity than to human TNC FBG [1]: > 70 fold
